Data on two molecules can be found in patent publication US20250066508A1 (SHENYANG SUNSHINE PHARMACEUTICAL, published 2025).

The target in test [1] is Human MASP-2 (human, UniProt O00187 16-686). Description: cell-based or functional assay.
Test [2] concerns the target T1, MASP2-CCP1/2 (human, UniProt O00187 298-443).
T1 construct: also called CCP1/2 domain of MASP-2
Description: ELISA, antigen coated 20 ng/well. The procedure:
(§1) The enzyme-linked immunosorbent assay (ELISA) method used in the following examples is described as follows: the microplate was coated with the corresponding recombinant protein, and PBST containing 1% bovine serum albumin (PBST is phosphate buffer containing 0.05% Tween-20) was used to block the microplate. The antibody to be tested was serially diluted, then transferred to the above-mentioned microplate coated with recombinant protein, followed by incubation at room temperature for half an hour. After washing the plate, appropriately diluted HRP (Horseradish Peroxidase)-labeled goat anti-human antibody (Fc specific, purchased from Sigma) was added, followed by incubation at room temperature for half an hour. After washing the plate, 100 μl of chromogenic solution with TMB (3,3′,5,5′-Tetramethylbenzidine) was added as substrate to each well, followed by incubation at room temperature for 1 to 5 minutes. 50 μl stop solution (2M H₂SO₄) was added to stop the reaction. OD450 was read by a plate reader (SpectraMax 190). GraphPad Prism7 was used for graphing and data analyzing, and EC₅₀/IC₅₀ was calculated.

In test [3] the target is Mouse MASP2-CCP1/2-SP-RQSA (mouse, UniProt Q91WP0 298-685). Description: ELISA, antigen coated 20 ng/well. How it is done: as §1
For orientation: ELISA stands for enzyme-linked immunosorbent assay.

The target of test [4] is Rat MASP2-CCP1/2-SP-RQSA (rat, UniProt Q9JJS8 298-685). Description: ELISA, antigen coated 20 ng/well. The procedure: as §1
For test [5], the target named is T2, Rhesus MASP2-CCP1/2-SP-RQSA (rhesus macaque, UniProt O00187 298-686 (human entry), limits assumed).
T2 construct: also called rhesus macaque MASP-2
Description: ELISA, antigen coated 20 ng/well. The procedure: as §1

Test [6] deals with T3, MASP2-CCP1/2-SP-RKSA (human, UniProt O00187 298-686). Description: ELISA, antigen coated 20 ng/well. How it is done: as §1
(§2) The smaller the EC₅₀ and the larger the Top, the stronger the binding effect is.

The target in test [7] is T4, MASP2-CCP1/2-SP-RQ (human, UniProt O00187 298-686). Description: ELISA, antigen coated 20 ng/well. How it is done: as §1, §2
For test [8], the target named is T3, MASP2-CCP1/2-SP-RKSA. Description: SPR, Biacore 8K, antibody captured on Protein A/G chip, antigen as analyte. From the text: (§3) Here, the affinity between the above antibodies and MASP2-CCP1/2-SP-RKSA or MASP2-CCP1/2-SP-RQ was detected by Biacore 8K (GE healthcare). On Biacore 8K, a chip conjugated with Protein A/G was used to capture various antibodies, and then the above two recombinations were used as analytes (Analyte) to flow through the chip to obtain the binding-dissociation curve, and regeneration buffer was used to regenerate the chip and proceed to the next cycle; Biacore 8K Evaluation Software was used to analyze the data.
(In SPR one partner is held on a chip, and binding of the other changes the refractive index at the surface.)

In test [9] the target is T4, MASP2-CCP1/2-SP-RQ. Described as above.
Source text: as §3

Test [10] addresses T5, MASP2-SP-RQSA (human, UniProt O00187 445-686, limits assumed).
T5 construct: also called SP domain of MASP-2
Description: ELISA, plate coated with MASP2-SP-RQSA (20 ng/well), HRP goat anti-human Fc, OD450. How it is done: as §1

The target of test [11] is T6, MASP1-CCP1/2-SP-RQSA (human, UniProt P48740 299-699).
T6 construct: also called human MASP-1; human MASP1-CCP1/2-SP-RQSA
T6 chain: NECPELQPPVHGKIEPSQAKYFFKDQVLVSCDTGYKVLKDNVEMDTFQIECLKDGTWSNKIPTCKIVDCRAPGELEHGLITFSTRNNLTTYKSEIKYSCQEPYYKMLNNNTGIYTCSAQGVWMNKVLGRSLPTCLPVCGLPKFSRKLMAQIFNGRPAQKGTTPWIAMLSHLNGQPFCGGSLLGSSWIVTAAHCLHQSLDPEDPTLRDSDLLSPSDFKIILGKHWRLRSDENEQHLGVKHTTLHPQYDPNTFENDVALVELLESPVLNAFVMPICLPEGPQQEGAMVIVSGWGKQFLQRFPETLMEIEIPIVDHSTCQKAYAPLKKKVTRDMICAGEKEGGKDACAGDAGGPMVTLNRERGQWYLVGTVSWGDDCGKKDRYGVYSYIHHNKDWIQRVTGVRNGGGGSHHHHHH
Description: ELISA, plate coated with MASP1-CCP1/2-SP-RQSA (20 ng/well), HRP goat anti-human Fc, OD450. The procedure: as §1

The target in test [12] is T7, MASP3-CCP1/2-SP-RQSA (human).
T7 construct: also called human MASP-3; human MASP3-CCP1/2-SP-RQSA
T7 chain: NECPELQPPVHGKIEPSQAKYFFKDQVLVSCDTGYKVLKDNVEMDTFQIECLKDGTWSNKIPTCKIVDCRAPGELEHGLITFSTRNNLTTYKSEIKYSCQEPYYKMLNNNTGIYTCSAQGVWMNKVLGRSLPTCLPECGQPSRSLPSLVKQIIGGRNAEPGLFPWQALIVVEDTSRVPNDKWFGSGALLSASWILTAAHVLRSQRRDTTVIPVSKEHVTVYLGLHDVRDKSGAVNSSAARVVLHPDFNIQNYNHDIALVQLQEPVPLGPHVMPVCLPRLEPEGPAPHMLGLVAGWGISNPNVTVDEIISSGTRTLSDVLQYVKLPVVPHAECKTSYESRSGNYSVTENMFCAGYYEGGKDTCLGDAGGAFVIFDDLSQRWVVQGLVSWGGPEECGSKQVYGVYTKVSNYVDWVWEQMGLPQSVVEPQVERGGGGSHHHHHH
Description: ELISA, plate coated with MASP3-CCP1/2-SP-RQSA (20 ng/well), HRP goat anti-human Fc, OD450. How it is done:
as §1

T4 sequence (O00187 other isoform, or with tags, fused parts or gaps limits assumed): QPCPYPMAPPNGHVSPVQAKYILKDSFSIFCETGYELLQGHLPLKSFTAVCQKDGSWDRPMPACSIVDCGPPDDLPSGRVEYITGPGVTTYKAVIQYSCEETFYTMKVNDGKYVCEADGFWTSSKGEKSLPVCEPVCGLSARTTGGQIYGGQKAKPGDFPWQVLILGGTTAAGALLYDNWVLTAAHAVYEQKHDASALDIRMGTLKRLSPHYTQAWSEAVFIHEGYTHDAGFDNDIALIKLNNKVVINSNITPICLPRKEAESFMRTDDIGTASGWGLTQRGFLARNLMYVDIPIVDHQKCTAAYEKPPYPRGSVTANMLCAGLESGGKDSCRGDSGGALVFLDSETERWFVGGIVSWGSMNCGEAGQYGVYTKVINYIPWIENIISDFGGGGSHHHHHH
T3 sequence (O00187 other isoform, or with tags, fused parts or gaps limits assumed): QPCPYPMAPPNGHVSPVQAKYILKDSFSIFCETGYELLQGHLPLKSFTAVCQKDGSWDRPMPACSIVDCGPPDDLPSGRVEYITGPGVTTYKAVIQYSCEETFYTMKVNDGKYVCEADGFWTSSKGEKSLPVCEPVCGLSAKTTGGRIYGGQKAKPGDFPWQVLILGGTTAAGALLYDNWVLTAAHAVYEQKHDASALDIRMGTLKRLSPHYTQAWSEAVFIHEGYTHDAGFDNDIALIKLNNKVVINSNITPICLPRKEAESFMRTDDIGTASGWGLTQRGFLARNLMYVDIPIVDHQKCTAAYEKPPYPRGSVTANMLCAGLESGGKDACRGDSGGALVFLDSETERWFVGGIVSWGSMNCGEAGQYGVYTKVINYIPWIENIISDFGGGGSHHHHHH
Chain of Rat MASP2-CCP1/2-SP-RQSA (Q9JJS8 other isoform, or with tags, fused parts or gaps limits assumed): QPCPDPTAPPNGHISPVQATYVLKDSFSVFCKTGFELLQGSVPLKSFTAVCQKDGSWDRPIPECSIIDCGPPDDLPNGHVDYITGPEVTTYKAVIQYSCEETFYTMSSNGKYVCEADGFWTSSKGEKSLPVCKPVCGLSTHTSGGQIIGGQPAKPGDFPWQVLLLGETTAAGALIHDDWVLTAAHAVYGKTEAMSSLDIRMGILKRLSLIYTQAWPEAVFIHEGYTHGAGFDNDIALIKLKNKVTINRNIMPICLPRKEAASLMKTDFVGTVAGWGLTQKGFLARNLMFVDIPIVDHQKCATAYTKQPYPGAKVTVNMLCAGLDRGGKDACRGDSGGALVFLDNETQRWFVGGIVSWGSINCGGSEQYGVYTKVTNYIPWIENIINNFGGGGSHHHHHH
Chain of Mouse MASP2-CCP1/2-SP-RQSA (Q91WP0 other isoform, or with tags, fused parts or gaps limits assumed): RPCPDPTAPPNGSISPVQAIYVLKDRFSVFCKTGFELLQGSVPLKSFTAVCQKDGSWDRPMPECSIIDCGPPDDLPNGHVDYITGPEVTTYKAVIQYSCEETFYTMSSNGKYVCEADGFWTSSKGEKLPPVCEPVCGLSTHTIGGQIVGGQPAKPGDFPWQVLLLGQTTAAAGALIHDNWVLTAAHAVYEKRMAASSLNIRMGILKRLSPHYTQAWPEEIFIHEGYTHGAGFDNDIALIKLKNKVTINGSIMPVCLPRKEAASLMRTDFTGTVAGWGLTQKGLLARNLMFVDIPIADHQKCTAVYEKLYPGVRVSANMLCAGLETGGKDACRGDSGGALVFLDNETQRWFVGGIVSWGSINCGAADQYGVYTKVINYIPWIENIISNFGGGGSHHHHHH
Chain of Human MASP-2 (O00187 16-686 limits assumed): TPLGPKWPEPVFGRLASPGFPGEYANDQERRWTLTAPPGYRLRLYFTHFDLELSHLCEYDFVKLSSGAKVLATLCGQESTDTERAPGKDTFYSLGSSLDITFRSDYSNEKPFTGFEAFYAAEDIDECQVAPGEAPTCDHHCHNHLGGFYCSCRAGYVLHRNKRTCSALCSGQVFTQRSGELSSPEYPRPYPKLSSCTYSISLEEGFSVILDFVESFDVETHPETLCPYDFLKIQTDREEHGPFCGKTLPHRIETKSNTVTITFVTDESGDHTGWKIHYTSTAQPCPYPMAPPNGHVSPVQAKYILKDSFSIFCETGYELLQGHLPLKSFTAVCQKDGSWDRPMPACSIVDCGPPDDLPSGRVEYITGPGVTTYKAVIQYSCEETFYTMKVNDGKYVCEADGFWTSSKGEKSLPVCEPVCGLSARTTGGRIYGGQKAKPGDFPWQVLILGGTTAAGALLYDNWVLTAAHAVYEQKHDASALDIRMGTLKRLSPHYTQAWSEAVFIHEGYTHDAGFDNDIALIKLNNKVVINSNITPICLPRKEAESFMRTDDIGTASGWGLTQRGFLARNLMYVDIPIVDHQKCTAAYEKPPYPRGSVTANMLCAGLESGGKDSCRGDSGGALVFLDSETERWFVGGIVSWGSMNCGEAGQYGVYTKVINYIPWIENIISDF
T1 sequence (O00187 other isoform, or with tags, fused parts or gaps limits assumed): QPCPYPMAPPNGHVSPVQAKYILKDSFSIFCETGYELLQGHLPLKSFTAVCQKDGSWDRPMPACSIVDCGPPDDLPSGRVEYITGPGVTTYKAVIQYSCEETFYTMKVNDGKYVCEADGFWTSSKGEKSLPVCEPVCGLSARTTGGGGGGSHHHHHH
T2 sequence (O00187 other isoform, or with tags, fused parts or gaps limits assumed): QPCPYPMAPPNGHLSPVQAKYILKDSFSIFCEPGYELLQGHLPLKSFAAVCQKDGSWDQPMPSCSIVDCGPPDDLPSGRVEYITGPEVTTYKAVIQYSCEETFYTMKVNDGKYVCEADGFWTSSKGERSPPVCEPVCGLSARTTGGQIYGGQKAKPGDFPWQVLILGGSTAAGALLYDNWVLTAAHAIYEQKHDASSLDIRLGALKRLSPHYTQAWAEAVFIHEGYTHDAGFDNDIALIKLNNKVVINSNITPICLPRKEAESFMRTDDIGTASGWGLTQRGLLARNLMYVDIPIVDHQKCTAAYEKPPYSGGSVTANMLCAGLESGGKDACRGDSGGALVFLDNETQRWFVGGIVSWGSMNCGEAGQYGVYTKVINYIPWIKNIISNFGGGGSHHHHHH
T5 sequence (O00187 other isoform, or with tags, fused parts or gaps limits assumed): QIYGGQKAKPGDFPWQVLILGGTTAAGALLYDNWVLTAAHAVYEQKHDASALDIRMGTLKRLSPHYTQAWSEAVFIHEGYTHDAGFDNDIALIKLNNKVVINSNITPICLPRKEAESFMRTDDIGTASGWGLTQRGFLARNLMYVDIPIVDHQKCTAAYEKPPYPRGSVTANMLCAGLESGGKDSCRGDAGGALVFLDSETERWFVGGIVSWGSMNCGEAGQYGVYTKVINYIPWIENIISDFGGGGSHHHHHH

B1: 169-IgG4 (antibody, V domains shown)
VH: QVQLQESGPGLVKPSETLSLTCTVSGGSISSSSYYWGWIRQPPGKGLEWIGSIYYSGSTYYNPSLKSRVTISVDTSKNQFSLKLSSVTAADTAVYYCARDRRGRFDPWGQGTMVTVSS
VL: SYELMQPPSMSVSPGQTASITCSGDKLGDIYAYWYQQKPGQSPVLVIYQDNKRPSGIPERFSGSNSGNTATLTISGTQAMDEADYYCQAWESSTGVFGGGTKLTVLG
notes: expressed in HEK293F; also called preferred antibody
Take B1: in test [1], the “IC50 of C3 deposition on mannan-coated microplates (40 µg/ml mannan, 1% human plasma)” value worked out at 0.0888 nM. Also, the “IC50 of C3 deposition on mannan-coated microplates (100 µg/ml mannan, 1% human plasma)” value in test [1] amounted to 0.0996 nM. In addition, the EC50 in test [2] was 0.146 nM; in [3], 0.19 nM; in test [4] it was 0.231 nM; in [5], 0.136 nM; in test [6], 0.106 nM; in test [7], 0.136 nM. Besides, the Kd in [8] came to 38.6 nM; in test [9], 4.82 nM. The off-rate constant (koff) in test [8] amounted to 0.00382 s⁻¹; in [9], 0.00361 s⁻¹. The on-rate constant (kon) was 99200 M⁻¹ s⁻¹ in test [8] and 750000 M⁻¹ s⁻¹ in test [9]. Moreover, the binding result in [10], in test [11] and in [12] was “no binding (tested: 100 nM (Log(Ab nM) = 2))” in each case.

B2: Narsoplimab (antibody, human IgG4 S228P, lambda, V domains shown)
VH: QVTLKESGPVLVKPTETLTLTCTVSGFSLSRGKMGVSWIRQPPGKALEWLAHIFSSDEKSYRTSLKSRLTISKDTSKNQVVLTMTNMDPVDTATYYCARIRRGGIDYWGQGTLVTVSS
VL: QPVLTQPPSLSVSPGQTASITCSGEKLGDKYAYWYQQKPGQSPVLVMYQDKQRPSGIPERFSGSNSGNTATLTISGTQAMDEADYYCQAWDSSTAVFGGGTKLTVLG
notes: also called positive control antibody; Control Narsoplimab
For B2, the figures for the EC50 in test [3] and in test [4] were 0.169 nM and 0.455 nM, respectively. The binding result in test [12] is recorded as “no binding (tested: 100 nM (Log(Ab nM) = 2))”.

The term EC50 denotes the midpoint of the concentration-response curve. Usually Kd stands for the constant that tells how readily two partners part at equilibrium. By koff is commonly meant the first-order rate constant of dissociation. By kon is commonly meant the rate constant with which the complex forms.
